The nanobody polyreactivity screen of Harvey et al. (2022)

Assay: yeast display, Sf9 membrane polyspecificity reagent, FACS + sequencing; frameworks hold sequencing errors
In short: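 Genes from sorted yeast were amplified by colony PCR, read by MiSeq 2 × 250 sequencing and filtered on CDR length. These cells carried a synthetic nanobody library in Saccharomyces cerevisiae BJ5465 and were sorted by FACS into low and high (top ~1%) gates on anti-HA and streptavidin fluorescence. Polyreactivity is labelled according to the gate of origin.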

Sequence	polyreactivity (PSR sort gate)
QVQLVESGGGLVQAGGSLRLSCAASGITFQYYTMGWYRQAPGKERELVAAISWSTSSTYYADSVKGRFTISRDNAKNTVYLQMNSLKPEDTAVYYCAARYTTRRYYYWGQGTQVTVSS	high polyreactivity
QVQLVESGGGLVQAGGSLRLSCAASGITFRDNGMGWYRQAPGKESELVAAITSGGSTYYADSVKGRFTISRDNAKNTVYLQMNSLKPEDTAVYYCAAKRIKRRGWRQLSWYDSWGQGTQVTVSS	high polyreactivity
QVQLVESGGGLVQAGGSLRLSCAASGITFRFYAMGWYRQAPGKERELVAVISRGGGTTYYADSVKGRFTISRDNAKNTVYLHMNSLKPEDTAVYYCNAVIAWYRSDEYDYWGQGTQVTVSS	high polyreactivity
QVQLVESGGGLVQAGGSLRLSCAASGITFRGYAMGWYRQAPGKERELVATISYRGGNTYYADSVKGRFTISRDNAKNTVYLQMNSLKPEDTAVYYCARKYFRTSNLYGYWGQGTQVTVSS	high polyreactivity
QVQLVESGGGLVQAGGSLRLSCAASGITFRKYAMGWYRQAPGKERELVAGIRYSGSSTYYADSVKGRFTISRDNAKNTVYLQMNSLKPEDTAVYYCAVYGTTRYATTYDYWGQGTQVTVSS	high polyreactivity
QVQLVESGGGLVQAGGSLRLSCAASGITFRQYAMGWYRQAPGKERELVAVITSRGGTTYYADSVKGRFTISRDNAKNTVYLQMNSLKPEDTAVYYCAKVYGFPYYRAYFPERRNGYWGQGTQVTVSS	high polyreactivity
QVQLVESGGGLVQAGGSLRLSCAASGITFRRNAMGWSRQAHGQVRELVAAITRSGGSTYYADSVKGRFTISRDNAKNTVYLQMNSLKPEDTADYYCAADNTNDEDTGYYWGQGTQVTVSS	high polyreactivity
QVQLVESGGGLVQAGGSLRLSCAASGITFRRNAMGWYRQAPGKERELVAAISLSGTRTYYADSVKGRFTISRDNAKNTVYLQMNSLKPEDTAVYYCAASYYNKFDYWGQGTQVTVSS	high polyreactivity
QVQLVESGGGLVQAGGSLRLSCAASGITFRRNAMGWYRQAPGKERELVAAITSRGGSTYYADSVKGRFTISRDNAKNTVYLQMNSMKPEDTAVYYCNAGGVDRVDRDYWGQGTQVTVSS	high polyreactivity
QVQLVESGGGLVQAGGSLRLSCAASGITFRRYGMGWYRQAPGKERELVATITSSVGSRTYYADSVKGRFTISRDNAKNTVYLQMNSLKPEDTAVYYCAADHRVYDYEYWGQGTQVTVSS	low polyreactivity
QVQLVESGGGLVQAGGSLRLSCAASGITFRSYAMGWYRQAPGKERELVATISWSGGITYYADSVKGRFTISRDNAKNTVYLQMNSLKPEDTAFYYCAKASQSWGRVDYYYWGLGTQVTVSS	low polyreactivity
QVQLVESGGGLVQAGGSLRLSCAASGITFRSYDMGWYRQAPGTERELVAAISSTGRTYYADSVKGRFTISRDNAKNTVYLQMNSLKPEDTAVYYCARARSHYAYYWWNAGTGLDYWGQGTQVTVSS	high polyreactivity
QVQLVESGGGLVQAGGSLRLSCAASGITFRSYVMGWYRQAPGKEMEFVAVITKSGGSTYYADSVKGRFTISRDNAMNTVYLQMNSLKPEDTAVYYCGAEYARSSRYKISSEMYYWGQGTQVTVSS	high polyreactivity
QVQLVESGGGLVQAGGSLRLSCAASGITFRTNAMGWYRQAPGKERELVAAITTNGGNTYYADSVKGRFTISRDNAKNTVYLQMNSLKPEDTAVYYCNTATYVDSFPDPGDHWGQGTQVTVSS	low polyreactivity
QVQLVESGGGLVQAGGSLRLSCAASGITFRWYAMGWYRQAPGKERELVAAISTSGTRTYYADSVKGRFTISRDNAKNTVYLLMNSLKPEDTAVYYCAADYGRQLGRYGFGYWGQGTQVSVSS	high polyreactivity
QVQLVESGGGLVQAGGSLRLSCAASGITFRWYTMGWYRQAPGKERELVAAITSSGARTYYADSVKGRFTISRDNAKNTVYLQMNSLKPEDTAVYYCAATQTRFAAKDEYWGQGTQVTVSS	high polyreactivity
QVQLVESGGGLVQAGGSLRLSCAASGITFRYFAMGWYRQAPGKERELVAAITRSGSTTYADSVKGRFTISRDNAKNTVYLQMNSLKPEDTAVYYCAVDYYYLTGGVDYWGQGTQVTVSS	low polyreactivity
QVQLVESGGGLVQAGGSLRLSCAASGITFRYYAMGWYRQAPGKERELVAAITRGGRTNYADSVKGRFTISRDNAKNTVYLQMNSLKPEDAAVYYCATGRDSNFGNSYYYWGQGTQVTVSS	high polyreactivity
QVQLVESGGGLVQAGGSLRLSCAASGITFRYYAMGWYRQAPGKERELVAGISGRGGSTYYADSVKGRFTISRDNAKNTVYLQLNSLKPEDTAVYYCAKDRLWYRGYRWGYYYWGQGTQVTVSS	high polyreactivity
QVQLVESGGGLVQAGGSLRLSCAASGITFRYYAMGWYRQAPGKERELVATITRGGSTYYADSVKGRFTISRDNAKNTVYLQMNSLKPEDTADYYCAAAGQRYTYWVDYWGQGTQVTVSS	high polyreactivity
QVQLVESGGGLVQAGGSLRLSCAASGITFSFYAMGWYRQAPGKERELVATIDSGGSTNYADSVKGRFTISRDNAKNTVYLQMNSLKPEDTAVYYCAVVFHYSTIGGGYRPRMYYWGQGTQVTVSS	low polyreactivity
QVQLVESGGGLVQAGGSLRLSCAASGITFSGYDMGWYRQAPGKERELVADITISTGSTYYADSVKGRFTISRDNAKNTVYLQMNSLKPEDTAVYYCAADWQQDRTVVLPSWGHAYDSWGQGTQVTVSS	low polyreactivity

Sequence	polyreactivity (PSR sort gate)
QVQLVESGGGLVQAGGSLRLSCAASGITFSHYAMGWYRQAPGKEREFVAAIRYSGGRTYYADSVKGRFTISRDNAKNTVYLQMNSLKPEDTAVYYCAAVVPDRYWGQGTQVTVSS	high polyreactivity
QVQLVESGGGLVQAGGSLRLSCAASGITFSRNAMGWYRQAPGKERELVAVISTRGGRTYYADSVKGRFTISRDNAKNTVYLQMNSLKPEDTAVYYCAARSTYYRQQRGYDYWGQGTQVTVSS	high polyreactivity
QVQLVESGGGLVQAGGSLRLSCAASGITFSRYAMGWYRQAPGKERELVASISTSGGSTYYADSVKGRFTISRDNAKNTVYLQMNSLKPEDTAVYYCAASVWSSRRFGYWGQGTQVSVSS	high polyreactivity
QVQLVESGGGLVQAGGSLRLSCAASGITFSRYGMGWYRQAPGKERELVAVISWRGGRTYYADSVKGRFTISRYNAKNTVYLHMNSLKPEDTAVYYCAADSRQSVYDYDYWGQGTQVTVSS	high polyreactivity
QVQLVESGGGLVQAGGSLRLSCAASGITFSTYAMGWYRQAPGKERELVAAITKSGGSTYYADSVKGRFTISRDNAKNTVYLQMNSLKPEDTAVYYCAAKGWIWNPYNYWGQGTQVTVSS	low polyreactivity
QVQLVESGGGLVQAGGSLRLSCAASGITFSVYTMGWYRQAPGKERELVAAIDSDGITNYADSVKGRFTISRDNAKNNVYLQMNSLKPEDTAVYYCAKQSGRADGVSGFDYWGQGTQVTVSS	low polyreactivity
QVQLVESGGGLVQAGGSLRLSCAASGITFSWYAMGWYRQAPGKEREFVATISASGGSTYYADSVKGRFTISRDNAKNTVYLQMNSLKAEDTAVYYCAAVIWYRNGARGTFDYWGQGTQETVSS	high polyreactivity
QVQLVESGGGLVQAGGSLRLSCAASGITFSYYAMGWYRQAPGKERELVAAINSSGGSTYYADSVKGRFTISRDNAKNTVYLQMNSLKPEDTAVYYCAADSFLYPYAEFGYWGQGTQVTVSS	low polyreactivity
QVQLVESGGGLVQAGGSLRLSCAASGITFSYYAMGWYRQAPGKERELVAAINSSGGSTYYADSVKGRFTISRDNAKNTVYLQMNSLKPEDTAVYYCNADYGYHNHLFWGYYGWSSDHWGQGTQVTVSS	low polyreactivity
QVQLVESGGGLVQAGGSLRLSCAASGITFSYYAMGWYRQAPGKERELVAAISGSGTSTYYADSVKGRFTISRDNAKNTVYFQMNSLKPEDTAVYYCAAGPPRKPGYYYWGQGTQVTVSS	high polyreactivity
QVQLVESGGGLVQAGGSLRLSCAASGITFTAYAMGWYRQAPGKEREFVAVITRSGGSTYYADSVKGRFTISRDNAKNTVYLQMNSLKPEDTAVYYCAAETSYRYGWYYYWGQGTQVTVSS	high polyreactivity
QVQLVESGGGLVQAGGSLRLSCAASGITFTDYAMGWYRPAPGKERELVAAISSRGGSTYYADSVKGRFTISRDHAKNTVYLQMNSLKPEDTAVYYCNARFVRRGSGYDYWGQGTQVTLSS	high polyreactivity
QVQLVESGGGLVQAGGSLRLSCAASGITFTEYAMGWYRQAPGKERELVATISYGGGITYYADSVKGRFTISRDNAKNTVYLQMNSLKPEDTAVYYCAADGLSQVQRGMDYWGQGTQVTVSS	low polyreactivity
QVQLVESGGGLVQAGGSLRLSCAASGITFTFYAMGWYRQAPGKERELVAAISRRGGSTYYADSVKGRFTISRDNAKNTVYLQMNSLKPEDTAVYYCAARGYRPMDYWGHGTQVTVSS	high polyreactivity
QVQLVESGGGLVQAGGSLRLSCAASGITFTIYGMGWYRQATGKERELVAVISRRGGSTYYADSVKGRFTISRDNAKNTVYLQMNSLKPEDTAFYYCNTRTQGAKQYTGYDYWGQGTQVTVSS	high polyreactivity
QVQLVESGGGLVQAGGSLRLSCAASGITFTSNTMGWYRKAPGKERELVAAISKSGGSTYYADSVKGRFTISRDNAKNTVYLQMNSLKPEDTAVYYCAKDSYYYRRDVTVDYWGQGTQVTVSS	low polyreactivity
QVQLVESGGGLVQAGGSLRLSCAASGITFTSYAMGWYRQAPGKERELVAAISWSGDRTYYADSVKGRFTISRDNAKNTVYLQMNSLKPEDTAVYYCAADQFTGSVWAYYYWGQGTQVTVSS	high polyreactivity
QVQLVESGGGLVQAGGSLRLSCAASGITFTVYAMGWYRQAPGNEREVVAVINESGGSTYYADSVKGRFTISRDNAKNTVYLQMNSLKPEDTAVYYCNKTRVYVSSTYDYWGQGTQVTVSS	low polyreactivity
QVQLVESGGGLVQAGGSLRLSCAASGITFTYNAMGWYRQAPGKERELVASITLSGGNTYYADSVTGRFTISRDNAKNTVYLQMNSLKPEDTAVYYCAADDRGSSYGHFTVEYGYWGQGTQVTVSS	low polyreactivity
QVQLVESGGGLVQAGGSLRLSCAASGITFTYYAMGWYRQAPGKERELVAAITSGGDTYYADSVKGRFTISRDNAKNTVYLQMNSLKPEDTAVYYCAAEAVVVTKYSYWTYGLYDYWGQGTQVTVSS	high polyreactivity
QVQLVESGGGLVQAGGSLRLSCAASGITFTYYAMGWYRQAPGKERELVAGISRGGSTYYADSVKGRFTISRDNAKNTVYLQMNSLKPEDTAVYYCAATSYRRTGYNYWGQGTQVTVSS	high polyreactivity
